# According to patent US20150258192A1, “COMPOSITIONS AND METHODS FOR PREVENTING OR TREATING CHRONIC LUNG ALLOGRAFT DYSFUNCTION (CLAD) AND IDIOPATHIC PULMONARY FIBROSIS (IPF)” (priority 2014, published 2015):
# No end group written: not given here.
# Experiments:
# Test in all cases: Kinase Profiling Assay
# Assay type in all cases: biochemical
# Settings in all cases: peptide 100 μM
# Ron(h) = Ron(h) (Homo sapiens, UniProt Q04912)
# Outline: (§1)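 Kinase inhibition by MK2 inhibitory peptides was profiled radiometrically, with substrate phosphorylation from labeled ATP read by scintillation after capture on a charged filter. Values are relative to 100% activity and measured in duplicate.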
# MST1(h) = biological target: T1, MST1(h) (Homo sapiens, UniProt Q13043)
# T1 construct: purchased Millipore
# T1 sequence (Q13043 1-487): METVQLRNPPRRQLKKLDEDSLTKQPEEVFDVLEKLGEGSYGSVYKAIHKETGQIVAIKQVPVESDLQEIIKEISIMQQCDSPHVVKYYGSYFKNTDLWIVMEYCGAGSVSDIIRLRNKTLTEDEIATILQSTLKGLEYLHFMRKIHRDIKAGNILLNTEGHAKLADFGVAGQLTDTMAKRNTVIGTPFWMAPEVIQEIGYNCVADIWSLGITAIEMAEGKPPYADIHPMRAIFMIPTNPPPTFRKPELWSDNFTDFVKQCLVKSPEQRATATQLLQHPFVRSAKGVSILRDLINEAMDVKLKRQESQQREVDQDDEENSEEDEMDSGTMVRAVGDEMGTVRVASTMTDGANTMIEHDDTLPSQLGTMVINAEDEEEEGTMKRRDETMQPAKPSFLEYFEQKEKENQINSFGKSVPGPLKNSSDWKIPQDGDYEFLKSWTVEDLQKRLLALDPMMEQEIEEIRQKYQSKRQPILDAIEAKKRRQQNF
# Outline: as §1
# EGFR(L858R)(h) = EGFR(L858R)(h) (Homo sapiens, UniProt P00533, L858R)
# Outline: as §1
# BrSK2(h) = biological target: T2, BrSK2(h) (Homo sapiens, UniProt Q8IWQ3)
# T2 sequence (Q8IWQ3 1-736): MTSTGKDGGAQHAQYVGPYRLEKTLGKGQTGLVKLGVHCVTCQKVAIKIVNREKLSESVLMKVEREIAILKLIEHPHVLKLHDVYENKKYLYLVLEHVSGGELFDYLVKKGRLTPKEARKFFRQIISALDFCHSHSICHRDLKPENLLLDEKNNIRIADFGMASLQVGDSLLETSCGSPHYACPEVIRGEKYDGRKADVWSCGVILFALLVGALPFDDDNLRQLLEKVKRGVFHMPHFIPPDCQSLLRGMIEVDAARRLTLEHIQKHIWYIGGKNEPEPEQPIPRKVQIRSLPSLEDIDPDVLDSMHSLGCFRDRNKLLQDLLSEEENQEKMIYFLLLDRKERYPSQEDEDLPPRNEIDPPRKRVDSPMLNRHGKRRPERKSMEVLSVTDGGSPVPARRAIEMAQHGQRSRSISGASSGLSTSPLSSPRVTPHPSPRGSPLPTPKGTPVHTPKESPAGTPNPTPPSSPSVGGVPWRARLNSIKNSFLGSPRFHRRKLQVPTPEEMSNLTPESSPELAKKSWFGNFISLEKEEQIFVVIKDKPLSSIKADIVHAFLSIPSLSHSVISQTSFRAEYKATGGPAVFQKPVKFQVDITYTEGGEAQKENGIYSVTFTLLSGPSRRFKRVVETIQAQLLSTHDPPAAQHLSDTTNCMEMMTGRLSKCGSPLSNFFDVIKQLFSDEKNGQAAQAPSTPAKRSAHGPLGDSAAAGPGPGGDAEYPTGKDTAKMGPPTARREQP
# Outline: as §1
# mTOR/FKBP12(h) = biological target: T3, mTOR/FKBP12(h) (Homo sapiens, UniProt P42345)
# T3 construct: purchased Millipore
# Outline: as §1
# MSK2(h) = biological target: T4, MSK2(h) (Homo sapiens, UniProt O75676)
# T4 construct: purchased Millipore
# Outline: as §1
# MLCK(h) = biological target: T5, MLCK(h) (Homo sapiens, UniProt Q9H1R3)
# T5 construct: purchased Millipore
# Outline: as §1
# EGFR(L861Q)(h) = EGFR(L861Q)(h) (Homo sapiens, UniProt P00533, L861Q)
# Outline: as §1
# Flt3(h) = Flt3(h) (Homo sapiens, UniProt P36888)
# Outline: as §1
# PAK2(h) = biological target: T6, PAK2(h) (Homo sapiens, UniProt Q13177)
# T6 construct: purchased Millipore
# Outline: as §1
# TSSK2(h) = biological target: T7, TSSK2(h) (Homo sapiens, UniProt Q96PF2)
# T7 sequence (Q96PF2 1-358): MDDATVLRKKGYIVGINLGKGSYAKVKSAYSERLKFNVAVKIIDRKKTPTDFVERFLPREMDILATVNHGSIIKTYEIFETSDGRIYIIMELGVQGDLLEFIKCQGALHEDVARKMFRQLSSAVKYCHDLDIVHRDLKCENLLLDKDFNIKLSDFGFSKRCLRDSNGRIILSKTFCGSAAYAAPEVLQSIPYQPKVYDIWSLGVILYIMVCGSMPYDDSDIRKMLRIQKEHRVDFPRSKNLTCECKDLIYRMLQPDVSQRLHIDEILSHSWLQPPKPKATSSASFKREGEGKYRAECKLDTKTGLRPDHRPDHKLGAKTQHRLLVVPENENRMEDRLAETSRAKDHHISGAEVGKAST
# Outline: as §1
# CK1δ(h) = CK1δ(h) (Homo sapiens, UniProt P48730)
# Outline: as §1
# Ax1(h) = Ax1(h) (Homo sapiens, UniProt P30530)
# Outline: as §1
# Abl(Q252H)(h) = Abl(Q252H)(h) (Homo sapiens, UniProt P00519, Q252H)
# Outline: as §1
# Pim-1(h) = Pim-1(h) (Homo sapiens, UniProt P11309)
# Outline: as §1
# T3 sequence (P42345 1362-2549 limits assumed): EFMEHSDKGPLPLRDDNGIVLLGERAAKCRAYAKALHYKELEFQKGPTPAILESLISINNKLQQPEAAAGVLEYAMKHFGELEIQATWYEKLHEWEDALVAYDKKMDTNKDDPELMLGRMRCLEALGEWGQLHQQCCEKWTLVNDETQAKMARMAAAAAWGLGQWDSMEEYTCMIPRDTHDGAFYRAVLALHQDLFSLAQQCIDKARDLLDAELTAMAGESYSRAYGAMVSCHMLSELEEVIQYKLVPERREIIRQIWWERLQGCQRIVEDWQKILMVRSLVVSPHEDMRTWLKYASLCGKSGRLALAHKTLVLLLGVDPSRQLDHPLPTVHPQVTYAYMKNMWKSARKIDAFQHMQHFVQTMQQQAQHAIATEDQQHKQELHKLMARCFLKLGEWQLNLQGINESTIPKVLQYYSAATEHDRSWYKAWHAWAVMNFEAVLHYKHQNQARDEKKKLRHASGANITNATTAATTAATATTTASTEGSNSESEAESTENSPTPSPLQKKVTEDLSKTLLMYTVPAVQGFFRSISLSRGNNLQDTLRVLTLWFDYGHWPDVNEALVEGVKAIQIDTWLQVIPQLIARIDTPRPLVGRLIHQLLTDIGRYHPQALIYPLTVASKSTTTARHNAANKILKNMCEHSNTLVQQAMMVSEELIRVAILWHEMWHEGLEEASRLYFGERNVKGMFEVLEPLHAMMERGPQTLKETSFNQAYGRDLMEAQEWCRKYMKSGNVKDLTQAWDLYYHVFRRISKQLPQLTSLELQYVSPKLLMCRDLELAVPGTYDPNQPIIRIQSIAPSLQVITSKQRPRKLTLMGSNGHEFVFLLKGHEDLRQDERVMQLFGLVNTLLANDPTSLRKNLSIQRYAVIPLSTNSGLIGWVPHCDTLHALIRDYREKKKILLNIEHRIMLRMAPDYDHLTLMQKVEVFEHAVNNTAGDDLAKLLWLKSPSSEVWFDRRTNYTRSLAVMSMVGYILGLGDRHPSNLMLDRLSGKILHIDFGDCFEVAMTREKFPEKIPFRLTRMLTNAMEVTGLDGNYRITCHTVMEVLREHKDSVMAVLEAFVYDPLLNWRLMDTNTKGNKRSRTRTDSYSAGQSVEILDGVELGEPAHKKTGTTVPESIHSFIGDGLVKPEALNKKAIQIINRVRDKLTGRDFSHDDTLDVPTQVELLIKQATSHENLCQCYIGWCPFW
# T6 sequence (Q13177 whole entry): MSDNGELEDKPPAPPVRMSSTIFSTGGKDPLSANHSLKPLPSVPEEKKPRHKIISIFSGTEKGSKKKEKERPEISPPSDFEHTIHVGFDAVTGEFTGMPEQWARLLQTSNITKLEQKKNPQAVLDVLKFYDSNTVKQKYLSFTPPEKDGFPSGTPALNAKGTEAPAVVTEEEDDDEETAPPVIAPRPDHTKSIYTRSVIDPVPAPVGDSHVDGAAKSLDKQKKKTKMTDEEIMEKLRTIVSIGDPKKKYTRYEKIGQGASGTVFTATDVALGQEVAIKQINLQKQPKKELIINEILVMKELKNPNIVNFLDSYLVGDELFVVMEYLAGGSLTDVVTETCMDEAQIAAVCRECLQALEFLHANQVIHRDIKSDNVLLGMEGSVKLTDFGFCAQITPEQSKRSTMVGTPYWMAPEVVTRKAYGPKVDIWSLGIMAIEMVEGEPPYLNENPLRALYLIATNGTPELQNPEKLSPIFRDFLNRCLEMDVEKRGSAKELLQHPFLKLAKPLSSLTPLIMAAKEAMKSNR
# Chain of CK1δ(h) (P48730 whole entry): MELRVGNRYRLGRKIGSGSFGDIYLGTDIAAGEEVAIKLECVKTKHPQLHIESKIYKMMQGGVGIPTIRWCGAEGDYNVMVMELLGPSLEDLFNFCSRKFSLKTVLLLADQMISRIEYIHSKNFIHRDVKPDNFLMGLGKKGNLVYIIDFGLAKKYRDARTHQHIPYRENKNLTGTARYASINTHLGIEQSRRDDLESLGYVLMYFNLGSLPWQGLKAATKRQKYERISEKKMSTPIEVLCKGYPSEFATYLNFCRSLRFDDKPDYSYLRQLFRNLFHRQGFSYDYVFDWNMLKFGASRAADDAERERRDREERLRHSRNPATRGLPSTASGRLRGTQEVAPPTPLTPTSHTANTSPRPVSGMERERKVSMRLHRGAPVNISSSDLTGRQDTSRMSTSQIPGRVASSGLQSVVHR
# T5 sequence (Q9H1R3 2-596 limits assumed): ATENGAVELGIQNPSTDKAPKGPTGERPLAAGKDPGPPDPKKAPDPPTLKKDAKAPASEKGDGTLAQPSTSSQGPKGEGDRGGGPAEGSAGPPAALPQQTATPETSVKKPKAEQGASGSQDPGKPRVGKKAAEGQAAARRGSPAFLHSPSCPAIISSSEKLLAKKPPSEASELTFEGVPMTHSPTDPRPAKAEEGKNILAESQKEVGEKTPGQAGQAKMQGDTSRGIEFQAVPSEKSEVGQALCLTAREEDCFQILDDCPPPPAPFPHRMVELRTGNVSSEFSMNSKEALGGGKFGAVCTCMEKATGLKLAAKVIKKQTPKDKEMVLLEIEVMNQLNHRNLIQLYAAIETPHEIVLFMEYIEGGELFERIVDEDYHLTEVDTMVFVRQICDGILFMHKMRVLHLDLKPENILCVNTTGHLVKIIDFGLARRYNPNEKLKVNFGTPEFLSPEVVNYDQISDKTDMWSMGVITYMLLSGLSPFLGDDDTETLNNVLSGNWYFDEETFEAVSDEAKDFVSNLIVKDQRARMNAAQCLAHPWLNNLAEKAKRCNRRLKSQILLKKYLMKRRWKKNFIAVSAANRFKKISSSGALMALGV
# T4 sequence (O75676 whole entry): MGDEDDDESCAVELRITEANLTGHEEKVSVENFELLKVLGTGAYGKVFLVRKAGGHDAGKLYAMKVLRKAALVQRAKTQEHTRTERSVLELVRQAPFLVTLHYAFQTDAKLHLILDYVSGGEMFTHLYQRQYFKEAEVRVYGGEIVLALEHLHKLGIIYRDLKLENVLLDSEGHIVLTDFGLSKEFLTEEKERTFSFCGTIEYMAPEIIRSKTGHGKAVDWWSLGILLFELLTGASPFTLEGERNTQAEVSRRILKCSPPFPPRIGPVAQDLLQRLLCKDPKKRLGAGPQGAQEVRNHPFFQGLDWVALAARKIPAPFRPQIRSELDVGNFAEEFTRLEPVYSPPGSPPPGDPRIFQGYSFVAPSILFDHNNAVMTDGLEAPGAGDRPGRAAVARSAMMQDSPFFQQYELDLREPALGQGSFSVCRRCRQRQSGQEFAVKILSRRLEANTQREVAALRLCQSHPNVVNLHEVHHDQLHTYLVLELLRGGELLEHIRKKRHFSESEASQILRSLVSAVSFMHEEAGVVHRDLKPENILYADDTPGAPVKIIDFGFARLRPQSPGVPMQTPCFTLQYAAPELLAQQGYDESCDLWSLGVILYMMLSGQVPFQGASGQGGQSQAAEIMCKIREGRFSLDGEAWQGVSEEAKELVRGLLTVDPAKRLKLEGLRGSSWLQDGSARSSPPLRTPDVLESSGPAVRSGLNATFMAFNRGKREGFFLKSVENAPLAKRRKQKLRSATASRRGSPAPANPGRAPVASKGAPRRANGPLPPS
# Chain of Pim-1(h) (P11309 whole entry): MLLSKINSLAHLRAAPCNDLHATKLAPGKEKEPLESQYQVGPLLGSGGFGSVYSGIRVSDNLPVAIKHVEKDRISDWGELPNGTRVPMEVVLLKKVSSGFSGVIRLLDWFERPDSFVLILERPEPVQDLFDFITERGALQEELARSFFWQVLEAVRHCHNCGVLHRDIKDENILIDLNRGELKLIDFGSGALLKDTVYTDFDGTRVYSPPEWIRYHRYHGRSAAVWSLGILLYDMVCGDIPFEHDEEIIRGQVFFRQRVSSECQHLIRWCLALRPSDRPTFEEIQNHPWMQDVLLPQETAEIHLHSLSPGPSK
Sequence,% activity (Ron(h)),% activity (MST1(h)),% activity (EGFR(L858R)(h)),% activity (BrSK2(h)),% activity (mTOR/FKBP12(h)),% activity (MSK2(h)),% activity (MLCK(h)),% activity (EGFR(L861Q)(h)),% activity (Flt3(h)),% activity (PAK2(h)),% activity (TSSK2(h)),% activity (CK1δ(h)),% activity (Ax1(h)),% activity (Abl(Q252H)(h)),% activity (Pim-1(h))
HRRIKAWLKKIKALARQLGVAA (Mammal) [MMI-0500],46%,3%,26%,84%,140%,14%,0%,15%,17%,44%,92%,78%,12%,40%,0%
YARAAARQARAKALNRQLGVA (Mammal) [MMI-0200],120%,72%,120%,–,118%,88%,–,74%,99%,69%,91%,92%,99%,–,18%
YARAAARQARAKALARQLGVAA [MMI-0100],–,–,76%,129%,–,–,85%,53%,–,71%,–,–,81%,–,–
FAKLAARLYRKALARQLGVAA [MMI-0300],93%,14%,–,83%,145%,56%,2%,25%,84%,65%,98%,92%,52%,82%,8%
KAFAKLAARLYRKALARQLGVAA [MMI-0400],79%,6%,52%,86%,125%,52%,1%,22%,18%,59%,94%,93%,41%,98%,7%
